According to publication PMC6778195:

B1: unnamed (parent)
chain 1: PCVVGGQADTIYPAIANQMAHQMHEDAQTEASKRGLAKLRADAKQGIYKKNRKPQELSNICNITLQHSNDSRNGNNGGACTGKDGNNERFKIGTEWKIGEKVETTDTDAYIPPRRQHMCTSNLENLNVSWVTEDGKAIHSLLGDVQLAAKMDADEIIKRYKKHNTLTDPIQQKDQESICRAVRYSFADLGDIIRGRDLWEHGDQTKLQGHLQIIFGKIKEEIKKKHPGINGNDKYKGDEKNNPPYKQLREDWWEANRHQVWRAMQCELKNLKKSNGDCHYNSRGTPLDDYIPQRLRWMVEWAEWFCKMQSQEYDKLMKQCSQCMSKGGDCRKGDVNCTSCEQACEEYKKKIKKWEKQWNKIKDKYEELYLQAKIAFAGTSFGGGDRDYQQMVHFFKELQKVTGDTTLGDTTSPYSTAAGYIHQEGHVDECTEQTQFCKNRNGNTASGKEDDNYTFKDPPPKYANACKCD
chain 2: QTSVSPSKVILPRGGSVLVTCSTSCDQPKLLGIETPLPKKELLLPGNNRKVYELSNVQEDSQPMCYSNCPDGQSTAKTFLTVYWTPERVELAPLPSWQPVGKNLTLRCQVEGGAPRANLTVVLLRGEKELKREPAVGEPAEVTTTVLVRRDHHGANFSCRTELDLRPQGLELFENTSAPYQLQTFVLPATPPQLVSPRVLEVDTQGTVVCSLDGLFPVSEAQVHLALGDQRLNPTVTYGNDSFSAKASVSVTAEDEGTQRLTCAVILGNQSQETLQTVTIYSFPAPNVILTKPEVSEGTEVTVKCEAHPRAKVTLNGVPAQPLGPRAQLLLKATPEDNGRSFSCSATLEVAGQLIHKNQTRELRVLYGPRLDERDCPGNWTWPENSQQTPMCQAWGNPLPELKCLKDGTFPLPIGESVTVTRDLEGTYLCRARSTQGEVTRKVTVNVLSPRYE

Variants of: B1
Experiment: SPR
Conditions: with partner chain of the complex shown; top curve of the dilution series (250 nM), read at end of injection (~250 s); parent: 260; read off a plot

Point of comparison: chain 1 PCVVGGQADTIYPAIANQMAHQMHEDAQTEASKRGLAKLRADAKQGIYKKNRKPQELSNICNITLQHSNDSRNGNNGGACTGKDGNNERFKIGTEWKIGEKVETTDTDAYIPPRRQHMCTSNLENLNVSWVTEDGKAIHSLLGDVQLAAKMDADEIIKRYKKHNTLTDPIQQKDQESICRAVRYSFADLGDIIRGRDLWEHGDQTKLQGHLQIIFGKIKEEIKKKHPGINGNDKYKGDEKNNPPYKQLREDWWEANRHQVWRAMQCELKNLKKSNGDCHYNSRGTPLDDYIPQRLRWMVEWAEWFCKMQSQEYDKLMKQCSQCMSKGGDCRKGDVNCTSCEQACEEYKKKIKKWEKQWNKIKDKYEELYLQAKIAFAGTSFGGGDRDYAQMVHFFKELQKVTGDTTLGDTTSPYSTAAGYIHQEGHVDECTEQTQFCKNRNGNTASGKEDDNYTFKDPPPKYANACKCD [chain 1 Q389A], response 280 RU. Against it:
- chain 1 PCVVGGQADTIYPAIANQMAHQMHEDAQTEASKRGLAKLRADAKQGIYKKNRKPQELSNICNITLQHSNDSRNGNNGGACTGKDGNNERFKIGTEWKIGEKVETTDTDAYIPPRRQHMCTSNLENLNVSWVTEDGKAIHSLLGDVQLAAKMDADEIIKRYKKHNTLTDPIQQKDQESICRAVRYSFADLGDIIRGRDLWEHGDQTKLQGHLQIIFGKIKEEIKKKHPGINGNDKYKGDEKNNPPYKQLREDWWEANRHQVWRAMQCELKNLKKSNGDCHYNSRGTPLDDYIPQRLRWMVEWAEWFCKMQSQEYDKLMKQCSQCMSKGGDCRKGDVNCTSCEQACEEYKKKIKKWEKQWNKIKDKYAELYLQAKIAFAGTSFGGGDRDYQQMVHFFKELQKVTGDTTLGDTTSPYSTAAGYIHQEGHVDECTEQTQFCKNRNGNTASGKEDDNYTFKDPPPKYANACKCD [chain 1 E366A] — lower, 190 RU
- chain 1 PCVVGGQADTIYPAIANQMAHQMHEDAQTEASKRGLAKLRADAKQGIYKKNRKPQELSNICNITLQHSNDSRNGNNGGACTGKDGNNERFKIGTEWKIGEKVETTDTDAYIPPRRQHMCTSNLENLNVSWVTEDGKAIHSLLGDVQLAAKMDADEIIKRYKKHNTLTDPIQQKDQESICRAVRYSFADLGDIIRGRDLWEHGDQTKLQGHLQIIFGKIKEEIKKKHPGINGNDKYKGDEKANPPYKQLREDWWEANRHQVWRAMQCELKNLKKSNGDCHYNSRGTPLDDYIPQRLRWMVEWAEWFCKMQSQEYDKLMKQCSQCMSKGGDCRKGDVNCTSCEQACEEYKKKIKKWEKQWNKIKDKYEELYLQAKIAFAGTSFGGGDRDYQQMVHFFKELQKVTGDTTLGDTTSPYSTAAGYIHQEGHVDECTEQTQFCKNRNGNTASGKEDDNYTFKDPPPKYANACKCD [chain 1 N241A] — the same, 280 RU
- chain 1 PCVVGGQADTIYPAIANQMAHQMHEDAQTEASKRGLAKLRADAKQGIYKKNRKPQELSNICNITLQHSNDSRNGNNGGACTGKDGNNERFKIGTEWKIGEKVETTDTDAYIPPRRQHMCTSNLENLNVSWVTEDGKAIHSLLGDVQLAAKMDADEIIKRYKKHNTLTDPIQQKDQESICRAVRYSFADLGDIIRGRDLWEHGDQTKLQGHLQIIFGKIKEEIKKKHPGINGNDKYKGDEKNNPPYKQLREDWWEANRHQVWRAMQCELKNLKKSNGDCHYNSRGTPLDDYIPQRLRWMVEWAEWFCKMQSQEYDKLMKQCSQCMSKGGDCRKGDVNCTSCEQACEEYKKKIKKWEKQWNKIKDKYEELYDQAKIAFAGTSFGGGDRDYQQMVHFFKELQKVTGDTTLGDTTSPYSTAAGYIHQEGHVDECTEQTQFCKNRNGNTASGKEDDNYTFKDPPPKYANACKCD [chain 1 L370D] — lower, 70 RU
- chain 1 PCVVGGQADTIYPAIANQMAHQMHEDAQTEASKRGLAKLRADAKQGIYKKNRKPQELSNICNITLQHSNDSRNGNNGGACTGKDGNNERFKIGTEWKIGEKVETTDTDAYIPPRRQHMCTSNLENLNVSWVTEDGKAIHSLLGDVQLAAKMDADEIIKRYKKHNTLTDPIQQKDQESICRAVRYSFADLGDIIRGRDLWEHGDQTKLQGHLQIIFGKIKEEIKKKHPGINGNDKYKGDEKNNPPYKQLREDWWEANRHQVWRAMQCELKNLKKSNGDCHYNSRGTPLDDYIPQRLRWMVEWAEWFCKMQSQEYDKLMKQCSQCMSKGGDCRKGDVNCTSCEQACEEYKKKIKKWEKQWNKIKDKYEELYLQAKIAFAGTSFGAGDRDYQQMVHFFKELQKVTGDTTLGDTTSPYSTAAGYIHQEGHVDECTEQTQFCKNRNGNTASGKEDDNYTFKDPPPKYANACKCD [chain 1 G383A] — lower, 270 RU
- chain 1 PCVVGGQADTIYPAIANQMAHQMHEDAQTEASKRGLAKLRADAKQGIYKKNRKPQELSNICNITLQHSNDSRNGNNGGACTGKDGNNERFKIGTEWKIGEKVETTDTDAYIPPRRQHMCTSNLENLNVSWVTEDGKAIHSLLGDVQLAAKMDADEIIKRYKKHNTLTDPIQQKDQESICRAVRYSFADLGDIIRGRDLWEHGDQTKLQGHLQIIFGKIKEEIKKKHPGINGNDKYKGDEKNAPPYKQLREDWWEANRHQVWRAMQCELKNLKKSNGDCHYNSRGTPLDDYIPQRLRWMVEWAEWFCKMQSQEYDKLMKQCSQCMSKGGDCRKGDVNCTSCEQACEEYKKKIKKWEKQWNKIKDKYEELYLQAKIAFAGTSFGGGDRDYQQMVHFFKELQKVTGDTTLGDTTSPYSTAAGYIHQEGHVDECTEQTQFCKNRNGNTASGKEDDNYTFKDPPPKYANACKCD [chain 1 N242A] — lower, 270 RU
- chain 1 PCVVGGQADTIYPAIANQMAHQMHEDAQTEASKRGLAKLRADAKQGIYKKNRKPQELSNICNITLQHSNDSRNGNNGGACTGKDGNNERFKIGTEWKIGEKVETTDTDAYIPPRRQHMCTSNLENLNVSWVTEDGKAIHSLLGDVQLAAKMDADEIIKRYKKHNTLTDPIQQKDQESICRAVRYSFADLGDIIRGRDLWEHGDQTKLQGHLQIIFGKIKEEIKKKHPGINGNDKYKGDEKNNPPYKQLREDWWEANRHQVWRAMQCELKNLKKSNGDCHYNSRGTPLDDYIPQRLRWMVEWAEWFCKMQSQEYDKLMKQCSQCMSKGGDCRKGDVNCTSCEQACEEYKKKIKKWEKQWNKIKDKYEELYLQAKIAFAGTSFGGGDRDYQQMVHFFKELQKVTGDTTDGDTTSPYSTAAGYIHQEGHVDECTEQTQFCKNRNGNTASGKEDDNYTFKDPPPKYANACKCD [chain 1 L407D] — lower, 220 RU
- chain 1 PCVVGGQADTIYPAIANQMAHQMHEDAQTEASKRGLAKLRADAKQGIYKKNRKPQELSNICNITLQHSNDSRNGNNGGACTGKDGNNERFKIGTEWKIGEKVETTDTDAYIPPRRQHMCTSNLENLNVSWVTEDGKAIHSLLGDVQLAAKMDADEIIKRYKKHNTLTDPIQQKDQESICRAVRYSFADLGDIIRGRDLWEHGDQTKLQGHLQIIFGKIKEEIKKKHPGINGNDKYKGDEKNNPPYKQLREDWWEANRHQVWRAMQCELKNLKKSNGDCHYNSRGTPLDDYIPQRLRWMVEWAEWFCKMQSQEYDKLMKQCSQCMSKGGDCRKGDVNCTSCEQACEEYKKKIKKWEKQWNKIKDKYEELYLQAKIAFAGTSFAAGDRDYQQMVHFFKELQKVTGDTTLGDTTSPYSTAAGYIHQEGHVDECTEQTQFCKNRNGNTASGKEDDNYTFKDPPPKYANACKCD [chain 1 G382A G383A] — the same, 280 RU
- chain 1 PCVVGGQADTIYPAIANQMAHQMHEDAQTEASKRGLAKLRADAKQGIYKKNRKPQELSNICNITLQHSNDSRNGNNGGACTGKDGNNERFKIGTEWKIGEKVETTDTDAYIPPRRQHMCTSNLENLNVSWVTEDGKAIHSLLGDVQLAAKMDADEIIKRYKKHNTLTDPIQQKDQESICRAVRYSFADLGDIIRGRDLWEHGDQTKLQGHLQIIFGKIKEEIKKKHPGINGNDKYKGDEKNNPPYKQLREDWWEANRHQVWRAMQCELKNLKKSNGDCHYNSRGTPLDDYIPQRLRWMVEWAEWFCKMQSQEYDKLMKQCSQCMSKGGDCRKGDVNCTSCEQACEEYKKKIKKWEKQWNKIKDKYEELYLQAKIAFAGTSFAAADRDYQQMVHFFKELQKVTGDTTLGDTTSPYSTAAGYIHQEGHVDECTEQTQFCKNRNGNTASGKEDDNYTFKDPPPKYANACKCD [chain 1 G382A G383A G384A] — lower, 260 RU
